Measurements reported in patent publication US20150111251A1 (AbbVie / Abbott, published 2015).

Experiments:
[1] = target: T1, Recombinant Human TNF-α/TNFSF1A (human, UniProt P01375 77-233); assay: cell-based or functional assay
[2] = target: T1, Recombinant Human TNF-α/TNFSF1A; assay: SPR (BIACORE), antibody captured, TNFα in solution
Procedure: The BIACORE assay (Biacore, Inc, Piscataway, N.J.) determines the affinity of antibodies with kinetic measurements of on-rate and off-rate constants. Binding of antibodies to a target antigen (for example, a purified recombinant target antigen) is determined by surface plasmon resonance-based measurements with a Biacore® 1000 or 3000 instrument (Biacore® AB, Uppsala, Sweden) using running HBS-EP (10 mM HEPES [pH 7.4], 150 mM NaCl, 3 mM EDTA, and 0.005% surfactant P20) at 25° C. All chemicals are obtained from Biacore® AB (Uppsala, Sweden) or otherwise from a different source as described. For example, approximately 5000 RU of goat anti-mouse IgG, (Fcγ), fragment specific polyclonal antibody (Pierce Biotechnology Inc, Rockford, Ill.) diluted in 10 mM sodium acetate (pH 4.5) is directly immobilized across a CM5 research grade biosensor chip using a standard amine coupling kit according to manufacturer's instructions and procedures at 25 μg/ml. Unreacted moieties on the biosensor surface are blocked with ethanolamine. Modified carboxymethyl dextran surface in flowcell 2 and 4 is used as a reaction surface. Unmodified carboxymethyl dextran without goat anti-mouse IgG in flow cell 1 and 3 is used as the reference surface. For kinetic analysis, rate equations derived from the 1:1 Langmuir binding model are fitted simultaneously to association and dissociation phases of all eight injections (using global fit analysis) with the use of Biaevaluation 4.0.1 software. Purified antibodies are diluted in HEPES-buffered saline for capture across goat anti-mouse IgG specific reaction surfaces. Antibodies to be captured as a ligand (25 μg/ml) are injected over reaction matrices at a flow rate of 5 μl/minute. The association and dissociation rate constants, kₒₙ (M⁻¹ s⁻¹) and koff (s⁻¹), are determined under a continuous flow rate of 25 μl/minute. Rate constants are derived by making kinetic binding measurements at different antigen concentrations ranging from 10-200 nM. The equilibrium dissociation constant (M) of the reaction between antibodies and the target antigen is then calculated from the kinetic rate constants by the following formula: KD=koff/kₒₙ. Binding is recorded as a function of time and kinetic rate constants are calculated. In this assay, on-rates as fast as 10⁶ M⁻¹ s⁻¹ and off-rates as slow as 10⁻⁶ s⁻¹ can be measured.

T1 sequence (P01375 77-233 limits assumed): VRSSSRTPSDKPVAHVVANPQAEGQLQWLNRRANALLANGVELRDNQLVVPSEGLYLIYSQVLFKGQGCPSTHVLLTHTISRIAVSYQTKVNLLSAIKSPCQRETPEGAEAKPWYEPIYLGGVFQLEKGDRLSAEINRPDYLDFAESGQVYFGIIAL

Binder | TNFα Neutralization Assay IC50 nM (L929 cells) [1] | Kd [2] | koff [2] | kon [2]
AB373 (antibody, V domains shown, Full-length humanized antibody made in HEK 293-6E; also called hMAK199VH.2/hMAK199VL.2a) VH: EVQLVQSGAEVKKPGASVKVSCKASGYTFTNYGMNWVRQAPGQGLEWMGWINTYTGEPTYADDFKGRVTMTTDTSTSTAYMELSSLRSEDTAVYYCARKFLTTVVVTDYAMDYWGQGTTVTVSS VL: DIVMTQSPAFLSVTPGEKVTITCRASQDISNYLNWYQQKPDQTVKLLIYYTSRLQSGVPSRFSGSGSGTDYTFTISSLEAEDAATYFCQQGNTLPPTFGQGTKLEIK | > 20 nM | 1.2 nM | 0.0012 s⁻¹ | 940000 M⁻¹ s⁻¹
AB374 (antibody, V domains shown, Full-length humanized antibody made in HEK 293-6E; also called hMAK199VH.2/hMAK199VL.2b) VH: EVQLVQSGAEVKKPGASVKVSCKASGYTFTNYGMNWVRQAPGQGLEWMGWINTYTGEPTYADDFKGRVTMTTDTSTSTAYMELSSLRSEDTAVYYCARKFLTTVVVTDYAMDYWGQGTTVTVSS VL: DIVMTQSPAFLSVTPGEKVTITCRASQDISNYLNWYQQKPDQAPKLLIYYTSRLQSGVPSRFSGSGSGTDYTFTISSLEAEDAATYYCQQGNTLPPTFGQGTKLEIK | > 20 nM | 1.3 nM | 0.0015 s⁻¹ | 1.2e+06 M⁻¹ s⁻¹
AB365 (antibody, V domains shown, Full-length humanized antibody made in HEK 293-6E; also called hMAK199VH.1b/hMAK199VL.1b) VH: EVQLVQSGSELKKPGASVKVSCKASGYTFTNYGMNWVRQAPGQGLEWMGWINTYTGEPTYADDFKGRFVFSLDTSVSTAYLQISSLKAEDTAVYFCARKFLTTVVVTDYAMDYWGQGTTVTVSS VL: DIQMTQSPSSLSASVGDRVTITCRASQDISNYLNWYQQKPGKAPKLLIYYTSRLQSGVPSRFSGSGSGTDYTLTISSLQPEDFATYYCQQGNTLPPTFGQGTKLEIK | 1.52 nM | 0.91 nM | 0.001 s⁻¹ | 1.1e+06 M⁻¹ s⁻¹
AB369 (antibody, V domains shown, Full-length humanized antibody made in HEK 293-6E; also called hMAK199VH.2/hMAK199VL.1) VH: EVQLVQSGAEVKKPGASVKVSCKASGYTFTNYGMNWVRQAPGQGLEWMGWINTYTGEPTYADDFKGRVTMTTDTSTSTAYMELSSLRSEDTAVYYCARKFLTTVVVTDYAMDYWGQGTTVTVSS VL: DIQMTQSPSSLSASVGDRVTITCRASQDISNYLNWYQQKPGKAPKLLIYYTSRLQSGVPSRFSGSGSGTDFTLTISSLQPEDFATYYCQQGNTLPPTFGQGTKLEIK | > 20 nM | 1.1 nM | 0.001 s⁻¹ | 940000 M⁻¹ s⁻¹
AB356 (antibody, V domains shown, Full-length humanized antibody made in HEK 293-6E; also called hMAK199VH.1/hMAK199VL.2b) VH: EVQLVQSGSELKKPGASVKVSCKASGYTFTNYGMNWVRQAPGQGLEWMGWINTYTGEPTYADDFKGRFVFSLDTSVSTAYLQISSLKAEDTAVYYCARKFLTTVVVTDYAMDYWGQGTTVTVSS VL: DIVMTQSPAFLSVTPGEKVTITCRASQDISNYLNWYQQKPDQAPKLLIYYTSRLQSGVPSRFSGSGSGTDYTFTISSLEAEDAATYYCQQGNTLPPTFGQGTKLEIK | 0.87 nM | 0.67 nM | 0.00089 s⁻¹ | 1.3e+06 M⁻¹ s⁻¹
AB371 (antibody, V domains shown, Full-length humanized antibody made in HEK 293-6E; also called hMAK199VH.2/hMAK199VL.1b) VH: EVQLVQSGAEVKKPGASVKVSCKASGYTFTNYGMNWVRQAPGQGLEWMGWINTYTGEPTYADDFKGRVTMTTDTSTSTAYMELSSLRSEDTAVYYCARKFLTTVVVTDYAMDYWGQGTTVTVSS VL: DIQMTQSPSSLSASVGDRVTITCRASQDISNYLNWYQQKPGKAPKLLIYYTSRLQSGVPSRFSGSGSGTDYTLTISSLQPEDFATYYCQQGNTLPPTFGQGTKLEIK | > 20 nM | 1.2 nM | 0.0017 s⁻¹ | 1.5e+06 M⁻¹ s⁻¹
AB370 (antibody, V domains shown, Full-length humanized antibody made in HEK 293-6E; also called hMAK199VH.2/hMAK199VL.1a) VH: EVQLVQSGAEVKKPGASVKVSCKASGYTFTNYGMNWVRQAPGQGLEWMGWINTYTGEPTYADDFKGRVTMTTDTSTSTAYMELSSLRSEDTAVYYCARKFLTTVVVTDYAMDYWGQGTTVTVSS VL: DIQMTQSPSSLSASVGDRVTITCRASQDISNYLNWYQQKPGKTVKLLIYYTSRLQSGVPSRFSGSGSGTDYTLTISSLQPEDFATYFCQQGNTLPPTFGQGTKLEIK | 3.78 nM | 1.1 nM | 0.0012 s⁻¹ | 1e+06 M⁻¹ s⁻¹
AB361 (antibody, V domains shown, Full-length humanized antibody made in HEK 293-6E; also called hMAK199VH.1a/hMAK199VL.2a) VH: EIQLVQSGSELKKPGASVKVSCKASGYTFTNYGMNWVRQAPGQGLEWMGWINTYTGEPTYADDFKGRFVFSLDTSVSTAYLQISSLKAEDTAVYFCARKFLTTVVVTDYAMDYWGQGTTVTVSS VL: DIVMTQSPAFLSVTPGEKVTITCRASQDISNYLNWYQQKPDQTVKLLIYYTSRLQSGVPSRFSGSGSGTDYTFTISSLEAEDAATYFCQQGNTLPPTFGQGTKLEIK | 0.82 nM | 0.79 nM | 0.00098 s⁻¹ | 1.2e+06 M⁻¹ s⁻¹
AB362 (antibody, V domains shown, Full-length humanized antibody made in HEK 293-6E; also called hMAK199VH.1a/hMAK199VL.2b) VH: EIQLVQSGSELKKPGASVKVSCKASGYTFTNYGMNWVRQAPGQGLEWMGWINTYTGEPTYADDFKGRFVFSLDTSVSTAYLQISSLKAEDTAVYFCARKFLTTVVVTDYAMDYWGQGTTVTVSS VL: DIVMTQSPAFLSVTPGEKVTITCRASQDISNYLNWYQQKPDQAPKLLIYYTSRLQSGVPSRFSGSGSGTDYTFTISSLEAEDAATYYCQQGNTLPPTFGQGTKLEIK | 2.11 nM | 0.83 nM | 0.0011 s⁻¹ | 1.3e+06 M⁻¹ s⁻¹
AB355 (antibody, V domains shown, Full-length humanized antibody made in HEK 293-6E; also called hMAK199VH.1/hMAK199VL.2a) VH: EVQLVQSGSELKKPGASVKVSCKASGYTFTNYGMNWVRQAPGQGLEWMGWINTYTGEPTYADDFKGRFVFSLDTSVSTAYLQISSLKAEDTAVYYCARKFLTTVVVTDYAMDYWGQGTTVTVSS VL: DIVMTQSPAFLSVTPGEKVTITCRASQDISNYLNWYQQKPDQTVKLLIYYTSRLQSGVPSRFSGSGSGTDYTFTISSLEAEDAATYFCQQGNTLPPTFGQGTKLEIK | 1.9 nM | 0.59 nM | 0.0014 s⁻¹ | 2.4e+06 M⁻¹ s⁻¹
AB380 (antibody, V domains shown, Full-length humanized antibody made in HEK 293-6E; also called hMAK199VH.2a/hMAK199VL.2b) VH: EIQLVQSGAEVKKPGASVKVSCKASGYTFTNYGMNWVRQAPGQGLEWMGWINTYTGEPTYADDFKGRFTFTLDTSTSTAYMELSSLRSEDTAVYFCARKFLTTVVVTDYAMDYWGQGTTVTVSS VL: DIVMTQSPAFLSVTPGEKVTITCRASQDISNYLNWYQQKPDQAPKLLIYYTSRLQSGVPSRFSGSGSGTDYTFTISSLEAEDAATYYCQQGNTLPPTFGQGTKLEIK | > 20 nM | 1.8 nM | 0.0015 s⁻¹ | 820000 M⁻¹ s⁻¹
AB368 (antibody, V domains shown, Full-length humanized antibody made in HEK 293-6E; also called hMAK199VH.1b/hMAK199VL.2b) VH: EVQLVQSGSELKKPGASVKVSCKASGYTFTNYGMNWVRQAPGQGLEWMGWINTYTGEPTYADDFKGRFVFSLDTSVSTAYLQISSLKAEDTAVYFCARKFLTTVVVTDYAMDYWGQGTTVTVSS VL: DIVMTQSPAFLSVTPGEKVTITCRASQDISNYLNWYQQKPDQAPKLLIYYTSRLQSGVPSRFSGSGSGTDYTFTISSLEAEDAATYYCQQGNTLPPTFGQGTKLEIK | 1.09 nM | 1 nM | 0.0011 s⁻¹ | 1.1e+06 M⁻¹ s⁻¹
AB367 (antibody, V domains shown, Full-length humanized antibody made in HEK 293-6E; also called hMAK199VH.1b/hMAK199VL.2a) VH: EVQLVQSGSELKKPGASVKVSCKASGYTFTNYGMNWVRQAPGQGLEWMGWINTYTGEPTYADDFKGRFVFSLDTSVSTAYLQISSLKAEDTAVYFCARKFLTTVVVTDYAMDYWGQGTTVTVSS VL: DIVMTQSPAFLSVTPGEKVTITCRASQDISNYLNWYQQKPDQTVKLLIYYTSRLQSGVPSRFSGSGSGTDYTFTISSLEAEDAATYFCQQGNTLPPTFGQGTKLEIK | 0.53 nM | 1 nM | 0.001 s⁻¹ | 1e+06 M⁻¹ s⁻¹
AB377 (antibody, V domains shown, Full-length humanized antibody made in HEK 293-6E; also called hMAK199VH.2a/hMAK199VL.1b) VH: EIQLVQSGAEVKKPGASVKVSCKASGYTFTNYGMNWVRQAPGQGLEWMGWINTYTGEPTYADDFKGRFTFTLDTSTSTAYMELSSLRSEDTAVYFCARKFLTTVVVTDYAMDYWGQGTTVTVSS VL: DIQMTQSPSSLSASVGDRVTITCRASQDISNYLNWYQQKPGKAPKLLIYYTSRLQSGVPSRFSGSGSGTDYTLTISSLQPEDFATYYCQQGNTLPPTFGQGTKLEIK | > 20 nM | 1.4 nM | 0.0015 s⁻¹ | 1.1e+06 M⁻¹ s⁻¹
